Reference: patent publication US20250352667A1

How the values were obtained:
[1] = molecular target: KEAP1 (wild-type full-length), His-tagged (human) (UniProt Q14145); assay: AlphaScreen; 38.4 nM FLAG-NRF2, 150 nM His-KEAP1; Rep 1
[2] = molecular target: KEAP1 (wild-type full-length), His-tagged (human) (UniProt Q14145); assay: AlphaScreen; 76.8 nM FLAG-NRF2, 150 nM His-KEAP1; Rep 1
[3] = molecular target: KEAP1 (wild-type full-length), His-tagged (human) (UniProt Q14145); assay: AlphaScreen; 2.4 nM FLAG-NRF2, 150 nM His-KEAP1; Rep 1
[4] = molecular target: KEAP1 (wild-type full-length), His-tagged (human) (UniProt Q14145); assay: AlphaScreen; 1228.8 nM FLAG-NRF2, 150 nM His-KEAP1; signal against NRF2 only
[5] = molecular target: KEAP1 (wild-type full-length), His-tagged (human) (UniProt Q14145); assay: AlphaScreen; 19.2 nM FLAG-NRF2, 150 nM His-KEAP1; signal against NRF2 only
[6] = molecular target: KEAP1 (wild-type full-length), His-tagged (human) (UniProt Q14145); assay: AlphaScreen; 2.4 nM FLAG-NRF2, 150 nM His-KEAP1; Rep 2
[7] = molecular target: KEAP1 (wild-type full-length), His-tagged (human) (UniProt Q14145); assay: AlphaScreen; 19.2 nM FLAG-NRF2, 150 nM His-KEAP1; Rep 1
[8] = molecular target: KEAP1 (wild-type full-length), His-tagged (human) (UniProt Q14145); assay: AlphaScreen; 153.6 nM FLAG-NRF2, 150 nM His-KEAP1; Rep 2
[9] = molecular target: KEAP1 (wild-type full-length), His-tagged (human) (UniProt Q14145); assay: AlphaScreen; 4.8 nM FLAG-NRF2, 150 nM His-KEAP1; Rep 2
[10] = molecular target: KEAP1 (wild-type full-length), His-tagged (human) (UniProt Q14145); assay: AlphaScreen; 38.4 nM FLAG-NRF2, 150 nM His-KEAP1; signal against NRF2 only
[11] = molecular target: KEAP1 (wild-type full-length), His-tagged (human) (UniProt Q14145); assay: AlphaScreen; 1228.8 nM FLAG-NRF2, 150 nM His-KEAP1; Rep 1
[12] = molecular target: KEAP1 (wild-type full-length), His-tagged (human) (UniProt Q14145); assay: AlphaScreen; 19.2 nM FLAG-NRF2, 150 nM His-KEAP1; Rep 2
[13] = molecular target: KEAP1 (wild-type full-length), His-tagged (human) (UniProt Q14145); assay: AlphaScreen; 307.2 nM FLAG-NRF2, 150 nM His-KEAP1; Rep 2
[14] = molecular target: KEAP1 (wild-type full-length), His-tagged (human) (UniProt Q14145); assay: AlphaScreen; 1228.8 nM FLAG-NRF2, 150 nM His-KEAP1; Rep 2
[15] = molecular target: KEAP1 (wild-type full-length), His-tagged (human) (UniProt Q14145); assay: AlphaScreen; 307.2 nM FLAG-NRF2, 150 nM His-KEAP1; Rep 1
[16] = molecular target: KEAP1 (wild-type full-length), His-tagged (human) (UniProt Q14145); assay: AlphaScreen; 4.8 nM FLAG-NRF2, 150 nM His-KEAP1; signal against NRF2 only
[17] = molecular target: KEAP1 (wild-type full-length), His-tagged (human) (UniProt Q14145); assay: AlphaScreen; 9.6 nM FLAG-NRF2, 150 nM His-KEAP1; Rep 2
[18] = molecular target: KEAP1 (wild-type full-length), His-tagged (human) (UniProt Q14145); assay: AlphaScreen; 38.4 nM FLAG-NRF2, 150 nM His-KEAP1; Rep 2
[19] = molecular target: KEAP1 (wild-type full-length), His-tagged (human) (UniProt Q14145); assay: AlphaScreen; 4.8 nM FLAG-NRF2, 150 nM His-KEAP1; Rep 1
[20] = molecular target: KEAP1 (wild-type full-length), His-tagged (human) (UniProt Q14145); assay: AlphaScreen; 2.4 nM FLAG-NRF2, 150 nM His-KEAP1; signal against NRF2 only
[21] = molecular target: KEAP1 (wild-type full-length), His-tagged (human) (UniProt Q14145); assay: AlphaScreen; 153.6 nM FLAG-NRF2, 150 nM His-KEAP1; signal against NRF2 only
[22] = molecular target: KEAP1 (wild-type full-length), His-tagged (human) (UniProt Q14145); assay: AlphaScreen; 9.6 nM FLAG-NRF2, 150 nM His-KEAP1; Rep 1
[23] = molecular target: KEAP1 (wild-type full-length), His-tagged (human) (UniProt Q14145); assay: AlphaScreen; 614.4 nM FLAG-NRF2, 150 nM His-KEAP1; Rep 1
[24] = molecular target: KEAP1 (wild-type full-length), His-tagged (human) (UniProt Q14145); assay: AlphaScreen; 76.8 nM FLAG-NRF2, 150 nM His-KEAP1; Rep 2
[25] = molecular target: KEAP1 (wild-type full-length), His-tagged (human) (UniProt Q14145); assay: AlphaScreen; 153.6 nM FLAG-NRF2, 150 nM His-KEAP1; Rep 1
[26] = molecular target: KEAP1 (wild-type full-length), His-tagged (human) (UniProt Q14145); assay: AlphaScreen; 614.4 nM FLAG-NRF2, 150 nM His-KEAP1; Rep 2
[27] = molecular target: KEAP1 (wild-type full-length), His-tagged (human) (UniProt Q14145); assay: AlphaScreen; 614.4 nM FLAG-NRF2, 150 nM His-KEAP1; signal against NRF2 only
[28] = molecular target: KEAP1 (wild-type full-length), His-tagged (human) (UniProt Q14145); assay: AlphaScreen; 76.8 nM FLAG-NRF2, 150 nM His-KEAP1; signal against NRF2 only
[29] = molecular target: KEAP1 (wild-type full-length), His-tagged (human) (UniProt Q14145); assay: AlphaScreen; 307.2 nM FLAG-NRF2, 150 nM His-KEAP1; signal against NRF2 only

Sequence of KEAP1 (wild-type full-length), His-tagged (human) (Q14145 2-624 limits assumed, form in doubt): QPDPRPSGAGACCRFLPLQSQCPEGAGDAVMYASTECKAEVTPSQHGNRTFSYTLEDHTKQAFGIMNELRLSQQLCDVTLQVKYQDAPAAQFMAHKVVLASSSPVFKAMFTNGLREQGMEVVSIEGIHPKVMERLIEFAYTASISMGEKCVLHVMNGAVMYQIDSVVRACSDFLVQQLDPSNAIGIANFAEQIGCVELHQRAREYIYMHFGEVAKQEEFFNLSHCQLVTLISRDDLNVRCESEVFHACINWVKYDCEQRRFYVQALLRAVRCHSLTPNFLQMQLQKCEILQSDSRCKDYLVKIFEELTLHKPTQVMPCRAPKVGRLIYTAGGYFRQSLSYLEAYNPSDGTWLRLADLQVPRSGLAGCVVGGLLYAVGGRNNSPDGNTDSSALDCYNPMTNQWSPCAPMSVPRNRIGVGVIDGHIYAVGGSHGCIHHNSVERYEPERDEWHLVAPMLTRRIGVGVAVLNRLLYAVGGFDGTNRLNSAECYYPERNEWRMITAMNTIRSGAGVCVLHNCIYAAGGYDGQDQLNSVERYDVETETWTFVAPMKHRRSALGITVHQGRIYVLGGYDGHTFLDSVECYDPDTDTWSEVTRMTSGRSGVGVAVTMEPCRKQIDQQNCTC

| A-counts [1] [A-counts] | A-counts [2] [A-counts] | A-counts [3] [A-counts] | S/N [4] | S/N [5] | A-counts [6] [A-counts] | A-counts [7] [A-counts] | A-counts [8] [A-counts] | A-counts [9] [A-counts] | S/N [10] | A-counts [11] [A-counts] | A-counts [12] [A-counts] | A-counts [13] [A-counts] | A-counts [14] [A-counts] | A-counts [15] [A-counts] | S/N [16] | A-counts [17] [A-counts] | A-counts [18] [A-counts] | A-counts [19] [A-counts] | S/N [20] | Substance | further results |
| --- | --- | --- | --- | --- | --- | --- | --- | --- | --- | --- | --- | --- | --- | --- | --- | --- | --- | --- | --- | --- | --- |
| 2120 | 2140 | 1080 | 1 | 1.8 | 1120 | 1700 | 1840 | 1480 | 1.8 | 1250 | 1950 | 1650 | 1210 | 1600 | 1.8 | 1520 | 1960 | 1390 | 1.7 | NRF2 isoform 2 (E63G/E66G full-length), FLAG-tagged | S/N [21]: 1.5; A-counts [22]: 1670 A-counts; A-counts [23]: 1570 A-counts; A-counts [24]: 1900 A-counts; A-counts [25]: 1820 A-counts; A-counts [26]: 1400 A-counts; S/N [27]: 1.1; S/N [28]: 1.7; S/N [29]: 1.1 |
| 3470 | 3730 | 1130 | 1.3 | 4.2 | 1010 | 3480 | 3500 | 1670 | 3.4 | 1480 | 3260 | 2860 | 1470 | 2970 | 2.7 | 2590 | 3460 | 1740 | 2 | NRF2 isoform 2 (wild-type full-length), FLAG-tagged | S/N [21]: 2.8; A-counts [22]: 2310 A-counts; A-counts [23]: 2430 A-counts; A-counts [24]: 3910 A-counts; A-counts [25]: 3200 A-counts; A-counts [26]: 2290 A-counts; S/N [27]: 2.1; S/N [28]: 3.4; S/N [29]: 2.2 |
